B1: Cullin-9, residues 2234 to 2275; numbered along this chain, Q8IWT3 (parent)
chain: KRCPSCQAPIEKNEGCLHMTCAKCNHGFCWRCLKSWKPNHKD

Our source for the abundance fitness values is the Human Domainome abundance scans (Beltran et al. 2025).

± gives the uncertainty stated by the source.

The variants in this data set derive from B1. Put plainly: abundance fitness (aPCA) (normalised: wild type 0, dead -1); higher = more abundant; growth selection in yeast, the domain comes from the species named. The conditions noted are these: Homo sapiens.
In the case of KRCPSCQAPIEKNEGCLHMTCAKCNHGFLWRCLKSWKPNHKD, the abundance fitness is -0.696 ± 0.1.
For KRCPSCQAPIEKNEGCLHMLCAKCNHGFCWRCLKSWKPNHKD, the abundance fitness was -0.099 ± 0.097.
As to KRCPSCQAPIEKNEGCLHMDCAKCNHGFCWRCLKSWKPNHKD, the abundance fitness is -0.166 ± 0.14.
Turning to KRCPSCQAPIEKNEGCLHMQCAKCNHGFCWRCLKSWKPNHKD, the abundance fitness is -0.029 ± 0.1.
Take KRCPSCQAPIEKNEGCLHMSCAKCNHGFCWRCLKSWKPNHKD: the abundance fitness is -0.304 ± 0.097.
For KRCPSCQAPIEKNEGCLHMACAKCNHGFCWRCLKSWKPNHKD, the abundance fitness is -0.218 ± 0.085.
Consider KRCPSCQAPIEKNEGCLHMTCAKCNHGFCWRCLKAWKPNHKD, for which the abundance fitness worked out at 0.049 ± 0.083.
Then KRCPSCQAPIEKNEGCLHMTCAKCNHGFCWRCLKLWKPNHKD, with 0.078 ± 0.09; and KRCPSCQAPIEKNEGCLHMTCAKCNHGFCWRCLKHWKPNHKD, with -0.373 ± 0.24; and KRCPSCQAPIEKNEGCLHMTCAKCNHGFCWRCLKIWKPNHKD, with -0.438 ± 0.3.
For KRCPSCQAPIEKNEGCLHMTCAKCNHGFCWRCLKVWKPNHKD, the abundance fitness was -0.132 ± 0.079.
Take KRCPSCQAPIEKNEGCLHMTCAKCNHGFCWRCLKNWKPNHKD: the abundance fitness was -0.092 ± 0.33.
For KRCPSCQAPIEKNEGCLHMTCAKCNHGFCWRCLKYWKPNHKD, the abundance fitness is -0.463 ± 0.23.
Consider KRCPSCQAPIEKNEGCLHMTCAKCNHGFCWRCLKRWKPNHKD, for which the abundance fitness is -0.356 ± 0.097.
Consider KRCPSCQAPIEKNEGCLHMTKAKCNHGFCWRCLKSWKPNHKD, for which the abundance fitness was -0.489 ± 0.12.
Regarding KRCPSSQAPIEKNEGCLHMTCAKCNHGFCWRCLKSWKPNHKD, the abundance fitness is -0.511 ± 0.12.
Next, KRCPSKQAPIEKNEGCLHMTCAKCNHGFCWRCLKSWKPNHKD: -0.515 ± 0.19.
Next, KRCPSFQAPIEKNEGCLHMTCAKCNHGFCWRCLKSWKPNHKD: -0.846 ± 0.28; KRCPSTQAPIEKNEGCLHMTCAKCNHGFCWRCLKSWKPNHKD: -0.347 ± 0.098.
Next, KGCPSCQAPIEKNEGCLHMTCAKCNHGFCWRCLKSWKPNHKD: 0.204 ± 0.079.
Turning to KACPSCQAPIEKNEGCLHMTCAKCNHGFCWRCLKSWKPNHKD, the abundance fitness amounted to 0.084 ± 0.096.
Then KNCPSCQAPIEKNEGCLHMTCAKCNHGFCWRCLKSWKPNHKD, with 0.571 ± 0.14; and KRCPSCQAPIEKNEGCLHMTCAKCNHGFCQRCLKSWKPNHKD, with -0.05 ± 0.12.
In the case of KRCPSCQAPIEKNEGCLHMTCAKCNHGFCCRCLKSWKPNHKD, the abundance fitness is -1.09 ± 0.24.
In the case of KRCPSCQAPIEKYEGCLHMTCAKCNHGFCWRCLKSWKPNHKD, the abundance fitness was -0.244 ± 0.16.
As to KRCPSCQAPIEKPEGCLHMTCAKCNHGFCWRCLKSWKPNHKD, the abundance fitness amounted to 0.183 ± 0.12.
KRCPSCQAPIEKNEGCLHMTCAKCNHGFCWRCLKSWKPNHKL: the abundance fitness is -0.444 ± 0.15.
As for KRCPSCQAPIEKNEGCLHMTCAKCNHGFCWRCLKSWKPNHKF, the abundance fitness is -0.729 ± 0.24.
As for KRMPSCQAPIEKNEGCLHMTCAKCNHGFCWRCLKSWKPNHKD, the abundance fitness is -0.144 ± 0.11.
On to KRPPSCQAPIEKNEGCLHMTCAKCNHGFCWRCLKSWKPNHKD, for which the abundance fitness was -0.945 ± 0.13.
As to KRQPSCQAPIEKNEGCLHMTCAKCNHGFCWRCLKSWKPNHKD, the abundance fitness is -1.07 ± 0.14.
Then KRAPSCQAPIEKNEGCLHMTCAKCNHGFCWRCLKSWKPNHKD, with -1.03 ± 0.12; and KRWPSCQAPIEKNEGCLHMTCAKCNHGFCWRCLKSWKPNHKD, with -1.4 ± 0.18; and KRNPSCQAPIEKNEGCLHMTCAKCNHGFCWRCLKSWKPNHKD, with 0.169 ± 0.24.
As for KRCPSCQAPIEKNEGCLHMTCAKCNHYFCWRCLKSWKPNHKD, the abundance fitness is -0.425 ± 0.3.
Turning to KRCPSCQAPIEKNEGCLHMTCAKCNHPFCWRCLKSWKPNHKD, the abundance fitness was -0.129 ± 0.15.
KRCPSCQAPIEKNEGCLHMTCAKCNHSFCWRCLKSWKPNHKD: the abundance fitness was 0.256 ± 0.097.
In the case of KRCPSCQAPIEKNEGCLHMTCAKCNHKFCWRCLKSWKPNHKD, the abundance fitness was 0.075 ± 0.14.
On to KRCPSCQAPIEKNEGCLHMTCAKCNHHFCWRCLKSWKPNHKD, for which the abundance fitness is 0.379 ± 0.14.
As for KRCPSCCAPIEKNEGCLHMTCAKCNHGFCWRCLKSWKPNHKD, the abundance fitness was -0.025 ± 0.11.
Then KRCPSCGAPIEKNEGCLHMTCAKCNHGFCWRCLKSWKPNHKD, with 0.258 ± 0.079.
As to KRCPVCQAPIEKNEGCLHMTCAKCNHGFCWRCLKSWKPNHKD, the abundance fitness came out at 0.259 ± 0.078.
For the variant KRCPECQAPIEKNEGCLHMTCAKCNHGFCWRCLKSWKPNHKD, the abundance fitness was 0.496 ± 0.091.
Next, KRCPACQAPIEKNEGCLHMTCAKCNHGFCWRCLKSWKPNHKD: 0.462 ± 0.074; GRCPSCQAPIEKNEGCLHMTCAKCNHGFCWRCLKSWKPNHKD: -0.815 ± 0.097.
On to HRCPSCQAPIEKNEGCLHMTCAKCNHGFCWRCLKSWKPNHKD, for which the abundance fitness is -0.436 ± 0.29.
Next, WRCPSCQAPIEKNEGCLHMTCAKCNHGFCWRCLKSWKPNHKD: -1.42 ± 0.38; MRCPSCQAPIEKNEGCLHMTCAKCNHGFCWRCLKSWKPNHKD: -0.162 ± 0.17.
In the case of KRCPSCQAPIEKNQGCLHMTCAKCNHGFCWRCLKSWKPNHKD, the abundance fitness is -0.132 ± 0.13.
Turning to KRCPSCQAPIEKNAGCLHMTCAKCNHGFCWRCLKSWKPNHKD, the abundance fitness is -0.001 ± 0.087.
Take KRCPSCQVPIEKNEGCLHMTCAKCNHGFCWRCLKSWKPNHKD: the abundance fitness is -0.231 ± 0.083.
As for KRCPSCQAPIEKNETCLHMTCAKCNHGFCWRCLKSWKPNHKD, the abundance fitness was -0.698 ± 0.17.
Then KRCPSCQAPIEKNEMCLHMTCAKCNHGFCWRCLKSWKPNHKD, with -0.576 ± 0.17; and KRCPSCQAPIEKNEGCLHMTCAKCNHGFCWRCLKSWPPNHKD, with -0.056 ± 0.094.
Consider KRCPSCQAPIEKNEGCLHMTCAKCNHGYCWRCLKSWKPNHKD, for which the abundance fitness is -0.049 ± 0.21.
As for KRCPSCQAPIEKNEGCLHMTCAKCNHGLCWRCLKSWKPNHKD, the abundance fitness was -0.233 ± 0.1.
Then KRCPSCQAPIEKNEGCLHMTCAKCNHGFCWRCFKSWKPNHKD, with -0.451 ± 0.15.
As for KRCPSCQAPIEKNEGCLHMTCAKCNHGFCWRCMKSWKPNHKD, the abundance fitness was -0.096 ± 0.1.
Next, KRCPSCQAPIEKNEGCLHMTCAKCNHGFCWRCEKSWKPNHKD: 0.02 ± 0.098; KRCPSCQAPIEKNEGCLHMTCAKCNHGFCWRCYKSWKPNHKD: -0.512 ± 0.21.
